We go through 125 sequences from the supplement of paper PMC9112550, “Optimization of the antimicrobial peptide Bac7 by deep mutational scanning” (BMC Biology, 2022).

The data set relates to Escherichia coli TOP10. As to the kind of experiment: shrunken log2 fold change of peptide-encoding DNA abundance (4.5 h post-induction vs induction); higher = less antimicrobial activity (less host growth inhibition). As to conditions: time post-induction: 4.5 h; library: site-saturation at positions 5, 18, 19, 20.
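Further: peptides expressed intracellularly from a pBAD plasmid library in pooled LB shake-flask culture, induced with 0.3% L-arabinose, DNA abundance read by NGS, three biological replicates, DESeq2 with apeglm shrinkage.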

RRIRVRPPRLPRPRPRPFRRPRP: the “shrunken log2 fold change” value is -0.101.
With RRIRWRPPRLPRPRPRPGRHPRP, the “shrunken log2 fold change” value was determined as 0.458.
Under RRIRCRPPRLPRPRPRPRQMPRP stands -0.136; under RRIRKRPPRLPRPRPRPPPCPRP, 0.585; under RRIRWRPPRLPRPRPRPKAAPRP, 0.338.
The same measure for RRIRVRPPRLPRPRPRPEKNPRP: 0.0805; for RRIRCRPPRLPRPRPRPAAFPRP: 0.292; for RRIRWRPPRLPRPRPRPCRGPRP: -0.0518.
Regarding RRIRIRPPRLPRPRPRPWCQPRP, the “shrunken log2 fold change” value is -0.339.
Under RRIRARPPRLPRPRPRPCAGPRP stands 0.477.
Under RRIRQRPPRLPRPRPRPYKMPRP stands -0.292.
Under RRIRVRPPRLPRPRPRPIGNPRP stands -0.194.
As to RRIRLRPPRLPRPRPRPATTPRP, the “shrunken log2 fold change” value stood at 0.467.
Regarding RRIRPRPPRLPRPRPRPHQKPRP, the “shrunken log2 fold change” value was -0.0717.
Under RRIRCRPPRLPRPRPRPLSTPRP stands -0.229; under RRIRVRPPRLPRPRPRPKFSPRP, 0.0178.
With RRIRHRPPRLPRPRPRPGAVPRP, the “shrunken log2 fold change” value was found to be 0.433.
Consider RRIRGRPPRLPRPRPRPRYIPRP, for which the “shrunken log2 fold change” value was -0.222.
With RRIRGRPPRLPRPRPRPYSVPRP, the “shrunken log2 fold change” value came out at 0.0284.
The same measure for RRIRERPPRLPRPRPRPCFVPRP: -0.151; for RRIRQRPPRLPRPRPRPQSYPRP: 0.015; for RRIRFRPPRLPRPRPRPPRTPRP: 0.579.
Consider RRIRMRPPRLPRPRPRPSDTPRP, for which the “shrunken log2 fold change” value turned out to be 0.232.
The same measure for RRIRDRPPRLPRPRPRPWGMPRP: -0.165; for RRIRQRPPRLPRPRPRPHPKPRP: -0.0646; for RRIRIRPPRLPRPRPRPAPEPRP: 1.9.
On to RRIRERPPRLPRPRPRPLMTPRP, for which the “shrunken log2 fold change” value was -0.295.
Regarding RRIRGRPPRLPRPRPRPMAYPRP, the “shrunken log2 fold change” value is 0.0863.
For RRIRHRPPRLPRPRPRPCKSPRP, the “shrunken log2 fold change” value was 0.0139.
For the sequence RRIRNRPPRLPRPRPRPNYQPRP, the “shrunken log2 fold change” value was -0.599.
RRIRVRPPRLPRPRPRPVKDPRP: the “shrunken log2 fold change” value worked out at 0.0828.
The same measure for RRIRTRPPRLPRPRPRPACVPRP: 0.235; for RRIRDRPPRLPRPRPRPSVGPRP: 0.217; for RRIRLRPPRLPRPRPRPPDIPRP: -0.0356.
Consider RRIRCRPPRLPRPRPRPGRKPRP, for which the “shrunken log2 fold change” value was 0.0644.
Under RRIRERPPRLPRPRPRPINFPRP stands -0.291.
Take RRIRHRPPRLPRPRPRPCQGPRP: the “shrunken log2 fold change” value was -0.00822.
Regarding RRIRWRPPRLPRPRPRPSAPPRP, the “shrunken log2 fold change” value was determined as 0.499.
The same measure for RRIRVRPPRLPRPRPRPLTPPRP: 0.758; for RRIRLRPPRLPRPRPRPPGMPRP: 0.197; for RRIRSRPPRLPRPRPRPIANPRP: -0.0897.
Under RRIRQRPPRLPRPRPRPDKRPRP stands 0.00102; under RRIRGRPPRLPRPRPRPWPKPRP, 0.199.
As to RRIRSRPPRLPRPRPRPEGCPRP, the “shrunken log2 fold change” value came out at 0.0128.
As for RRIRWRPPRLPRPRPRPNDPPRP, the “shrunken log2 fold change” value is -0.137.
Under RRIRDRPPRLPRPRPRPYCGPRP stands 0.0637.
As to RRIRYRPPRLPRPRPRPENWPRP, the “shrunken log2 fold change” value is -0.223.
In the case of RRIRMRPPRLPRPRPRPSCMPRP, the “shrunken log2 fold change” value was -0.0641.
For RRIRIRPPRLPRPRPRPVQFPRP, the “shrunken log2 fold change” value is -0.303.
Turning to RRIRYRPPRLPRPRPRPGSSPRP, the “shrunken log2 fold change” value is -0.853.
Under RRIRCRPPRLPRPRPRPPGTPRP stands 0.519.
The same measure for RRIRMRPPRLPRPRPRPPLLPRP: 0.515; for RRIRMRPPRLPRPRPRPGKHPRP: 4.3; for RRIRFRPPRLPRPRPRPPDSPRP: 0.0539.
The same measure for RRIRRRPPRLPRPRPRPWRAPRP: 0.181; for RRIRIRPPRLPRPRPRPGFTPRP: -0.329.
RRIRFRPPRLPRPRPRPWMWPRP: the “shrunken log2 fold change” value is -0.0253.
Under RRIRPRPPRLPRPRPRPEHFPRP stands 0.134; under RRIRYRPPRLPRPRPRPVEMPRP, -1.52; under RRIRSRPPRLPRPRPRPTMGPRP, -0.238.
The same measure for RRIRKRPPRLPRPRPRPHIRPRP: 0.0177; for RRIRSRPPRLPRPRPRPCTPPRP: -0.312; for RRIRKRPPRLPRPRPRPDPGPRP: 0.335.
Regarding RRIRPRPPRLPRPRPRPKPTPRP, the “shrunken log2 fold change” value was 0.434.
With RRIRGRPPRLPRPRPRPNNSPRP, the “shrunken log2 fold change” value is -0.114.
Under RRIRKRPPRLPRPRPRPHDDPRP stands 0.171; under RRIRPRPPRLPRPRPRPGLTPRP, 0.0985.
For RRIRWRPPRLPRPRPRPGIPPRP, the “shrunken log2 fold change” value was 0.11.
Under RRIRARPPRLPRPRPRPDMMPRP stands 0.139.
As to RRIRWRPPRLPRPRPRPGNWPRP, the “shrunken log2 fold change” value was 0.0533.
Under RRIRKRPPRLPRPRPRPTVIPRP stands -0.15; under RRIRIRPPRLPRPRPRPWMHPRP, 0.0105.
As to RRIRIRPPRLPRPRPRPWIQPRP, the “shrunken log2 fold change” value is -0.318.
Turning to RRIRRRPPRLPRPRPRPHYKPRP, the “shrunken log2 fold change” value is -0.487.
Under RRIRFRPPRLPRPRPRPHCQPRP stands -0.125.
RRIRARPPRLPRPRPRPVIEPRP: the “shrunken log2 fold change” value was 0.362.
The same measure for RRIRVRPPRLPRPRPRPKPIPRP: -0.0649.
The same measure for RRIRLRPPRLPRPRPRPQPWPRP: 0.319.
Turning to RRIRGRPPRLPRPRPRPIIIPRP, the “shrunken log2 fold change” value is -0.167.
The same measure for RRIRWRPPRLPRPRPRPHCGPRP: -0.0645; for RRIRARPPRLPRPRPRPWYRPRP: -0.099.
Take RRIRRRPPRLPRPRPRPFYTPRP: the “shrunken log2 fold change” value is -0.327.
Turning to RRIRERPPRLPRPRPRPNGPPRP, the “shrunken log2 fold change” value was -0.0578.
Under RRIRARPPRLPRPRPRPGKLPRP stands 0.149.
As to RRIRWRPPRLPRPRPRPAMMPRP, the “shrunken log2 fold change” value is 0.306.
Turning to RRIRMRPPRLPRPRPRPARAPRP, the “shrunken log2 fold change” value was determined as 1.43.
Take RRIRYRPPRLPRPRPRPQHYPRP: the “shrunken log2 fold change” value is -0.466.
On to RRIRERPPRLPRPRPRPKSLPRP, for which the “shrunken log2 fold change” value was -0.515.
On to RRIRCRPPRLPRPRPRPQMHPRP, for which the “shrunken log2 fold change” value is -0.27.
On to RRIRVRPPRLPRPRPRPADQPRP, for which the “shrunken log2 fold change” value was determined as 0.0278.
Turning to RRIRYRPPRLPRPRPRPPNYPRP, the “shrunken log2 fold change” value is -0.523.
Take RRIRDRPPRLPRPRPRPQDGPRP: the “shrunken log2 fold change” value was 0.0175.
Turning to RRIRARPPRLPRPRPRPEFFPRP, the “shrunken log2 fold change” value worked out at 0.33.
RRIRGRPPRLPRPRPRPDQPPRP: the “shrunken log2 fold change” value was determined as 1.01.
Take RRIRARPPRLPRPRPRPEDTPRP: the “shrunken log2 fold change” value stood at 0.625.
With RRIRKRPPRLPRPRPRPNWHPRP, the “shrunken log2 fold change” value was -0.0566.
The same measure for RRIRCRPPRLPRPRPRPGCPPRP: 0.239.
The same measure for RRIRTRPPRLPRPRPRPRQMPRP: 0.641; for RRIRVRPPRLPRPRPRPWHRPRP: -0.145.
As for RRIRWRPPRLPRPRPRPKTQPRP, the “shrunken log2 fold change” value amounted to 0.0326.
On to RRIRERPPRLPRPRPRPNERPRP, for which the “shrunken log2 fold change” value was -0.105.
Under RRIRTRPPRLPRPRPRPEVYPRP stands -0.00166; under RRIRSRPPRLPRPRPRPLWWPRP, 0.35.
On to RRIRTRPPRLPRPRPRPDTDPRP, for which the “shrunken log2 fold change” value is -0.138.
Consider RRIRTRPPRLPRPRPRPWGSPRP, for which the “shrunken log2 fold change” value is 0.0639.
For the sequence RRIRHRPPRLPRPRPRPYQPPRP, the “shrunken log2 fold change” value was -0.216.
The same measure for RRIRTRPPRLPRPRPRPVFHPRP: -0.136; for RRIRQRPPRLPRPRPRPPCCPRP: 0.0763; for RRIRSRPPRLPRPRPRPWSGPRP: -0.0339.
The same measure for RRIRCRPPRLPRPRPRPCENPRP: 0.0291.
Consider RRIRPRPPRLPRPRPRPGGAPRP, for which the “shrunken log2 fold change” value was 0.47.
As for RRIRQRPPRLPRPRPRPAMDPRP, the “shrunken log2 fold change” value was -0.00901.
Turning to RRIRARPPRLPRPRPRPVESPRP, the “shrunken log2 fold change” value is 0.986.
Under RRIRYRPPRLPRPRPRPFEGPRP stands -0.000989; under RRIRGRPPRLPRPRPRPCWIPRP, -0.0658.
Turning to RRIRMRPPRLPRPRPRPCKLPRP, the “shrunken log2 fold change” value is -0.00365.
The same measure for RRIRKRPPRLPRPRPRPNHVPRP: 0.0656; for RRIRNRPPRLPRPRPRPNRDPRP: -0.0094; for RRIRSRPPRLPRPRPRPPWTPRP: 0.319.
The same measure for RRIRMRPPRLPRPRPRPGWGPRP: 1.2; for RRIRGRPPRLPRPRPRPFFQPRP: 0.103.
Regarding RRIRNRPPRLPRPRPRPFGDPRP, the “shrunken log2 fold change” value was 0.0215.
The same measure for RRIRQRPPRLPRPRPRPGALPRP: 0.0446; for RRIRHRPPRLPRPRPRPFPLPRP: -0.0682; for RRIRPRPPRLPRPRPRPCHKPRP: -0.0956.
